Source: PMC314469, “Protein Interaction Networks by Proteome Peptide Scanning” (PLoS Biology, 2004)

Legend:
Experiment in all cases: SPOT array
[1] = biological target: T1, Yhr016c SH3 (YSC84_YEAST), P32793
T1 chain: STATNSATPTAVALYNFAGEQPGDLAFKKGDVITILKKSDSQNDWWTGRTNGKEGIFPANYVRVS

[2] = biological target: T2, Rvs167 SH3 (RV167_YEAST), P39743
T2 chain: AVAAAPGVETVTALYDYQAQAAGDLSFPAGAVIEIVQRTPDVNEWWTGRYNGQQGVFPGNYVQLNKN

[3] = biological target: T3, Yfr024 SH3 (LSB3_YEAST), P43603
T3 chain: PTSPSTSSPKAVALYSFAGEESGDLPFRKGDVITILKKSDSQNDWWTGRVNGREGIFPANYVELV

[4] = biological target: T4, Boi2 SH3 (BOI2_YEAST), P39969
T4 chain: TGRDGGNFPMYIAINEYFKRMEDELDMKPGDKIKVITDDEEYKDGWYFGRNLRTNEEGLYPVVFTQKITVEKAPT

[5] = biological target: T5, Boi1 SH3 (BOI1_YEAST), P38041
T5 chain: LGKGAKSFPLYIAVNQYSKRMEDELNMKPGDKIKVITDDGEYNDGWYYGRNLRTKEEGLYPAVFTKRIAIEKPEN

Binder: KIMPPTPAKKVEFI [YAL024C 312-325]
- normalised SPOT signal, Boehringer light units (BLU); mean over the file's lines of this peptide [1]: 682
- normalised SPOT signal, Boehringer light units (BLU); mean over the file's lines of this peptide [2]: 178
- normalised SPOT signal, Boehringer light units (BLU); mean over the file's lines of this peptide [3]: 3000
- normalised SPOT signal, Boehringer light units (BLU); mean over the file's lines of this peptide [4]: 180
- normalised SPOT signal, Boehringer light units (BLU); mean over the file's lines of this peptide [5]: 32

Binder: KISPSAPSKDSFTK [YAR002W 350-363]
- normalised SPOT signal, Boehringer light units (BLU); mean over the file's lines of this peptide [1]: 92.4
- normalised SPOT signal, Boehringer light units (BLU); mean over the file's lines of this peptide [2]: 79.2
- normalised SPOT signal, Boehringer light units (BLU); mean over the file's lines of this peptide [3]: 178
- normalised SPOT signal, Boehringer light units (BLU); mean over the file's lines of this peptide [4]: 1.3
- normalised SPOT signal, Boehringer light units (BLU); mean over the file's lines of this peptide [5]: 160

Binder: KKSPRLPHRNKKVT [YPR097W 347-360]
- normalised SPOT signal, Boehringer light units (BLU); mean over the file's lines of this peptide [1]: 1790
- normalised SPOT signal, Boehringer light units (BLU); mean over the file's lines of this peptide [2]: 2650
- normalised SPOT signal, Boehringer light units (BLU); mean over the file's lines of this peptide [3]: 7040
- normalised SPOT signal, Boehringer light units (BLU); mean over the file's lines of this peptide [4]: 46.7
- normalised SPOT signal, Boehringer light units (BLU); mean over the file's lines of this peptide [5]: 110

Binder: KKDPFPPPKDLLVQ [YGR140W 421-434]
- normalised SPOT signal, Boehringer light units (BLU); mean over the file's lines of this peptide [1]: 109
- normalised SPOT signal, Boehringer light units (BLU); mean over the file's lines of this peptide [2]: 12.2
- normalised SPOT signal, Boehringer light units (BLU); mean over the file's lines of this peptide [3]: 332
- normalised SPOT signal, Boehringer light units (BLU); mean over the file's lines of this peptide [4]: 49.2
- normalised SPOT signal, Boehringer light units (BLU); mean over the file's lines of this peptide [5]: 103

Binder: KKDPNAPKRALSAY [YPR052C 15-28]
- normalised SPOT signal, Boehringer light units (BLU); mean over the file's lines of this peptide [1]: 162
- normalised SPOT signal, Boehringer light units (BLU); mean over the file's lines of this peptide [2]: 25.3
- normalised SPOT signal, Boehringer light units (BLU); mean over the file's lines of this peptide [3]: 286
- normalised SPOT signal, Boehringer light units (BLU); mean over the file's lines of this peptide [4]: 19.5
- normalised SPOT signal, Boehringer light units (BLU); mean over the file's lines of this peptide [5]: 57

Binder: KKDPNAPKRRLSAY [YBR089C-A 21-34]
- normalised SPOT signal, Boehringer light units (BLU); mean over the file's lines of this peptide [1]: 288
- normalised SPOT signal, Boehringer light units (BLU); mean over the file's lines of this peptide [2]: 151
- normalised SPOT signal, Boehringer light units (BLU); mean over the file's lines of this peptide [3]: 241
- normalised SPOT signal, Boehringer light units (BLU); mean over the file's lines of this peptide [4]: 46.3
- normalised SPOT signal, Boehringer light units (BLU); mean over the file's lines of this peptide [5]: 190

Binder: KKLPTGPSKKRQRK [YER164W 1280-1293]
- normalised SPOT signal, Boehringer light units (BLU); mean over the file's lines of this peptide [1]: 85.9
- normalised SPOT signal, Boehringer light units (BLU); mean over the file's lines of this peptide [2]: 9.1
- normalised SPOT signal, Boehringer light units (BLU); mean over the file's lines of this peptide [3]: 808
- normalised SPOT signal, Boehringer light units (BLU); mean over the file's lines of this peptide [4]: 32.6
- normalised SPOT signal, Boehringer light units (BLU); mean over the file's lines of this peptide [5]: 136

Binder: KKPPKIPKKVYTLE [YPR104C 439-452]
- normalised SPOT signal, Boehringer light units (BLU); mean over the file's lines of this peptide [1]: 112
- normalised SPOT signal, Boehringer light units (BLU); mean over the file's lines of this peptide [2]: 33.3
- normalised SPOT signal, Boehringer light units (BLU); mean over the file's lines of this peptide [3]: 1300
- normalised SPOT signal, Boehringer light units (BLU); mean over the file's lines of this peptide [4]: 22
- normalised SPOT signal, Boehringer light units (BLU); mean over the file's lines of this peptide [5]: 56.8

Binder: KKYPRKPKKNLNLG [YDR485C 336-349]
- normalised SPOT signal, Boehringer light units (BLU); mean over the file's lines of this peptide [1]: 408
- normalised SPOT signal, Boehringer light units (BLU); mean over the file's lines of this peptide [2]: 9.5
- normalised SPOT signal, Boehringer light units (BLU); mean over the file's lines of this peptide [3]: 149
- normalised SPOT signal, Boehringer light units (BLU); mean over the file's lines of this peptide [4]: 68.1
- normalised SPOT signal, Boehringer light units (BLU); mean over the file's lines of this peptide [5]: 181

Binder: KLEPENPQKPSNTH [YFL054C 238-251]
- normalised SPOT signal, Boehringer light units (BLU); mean over the file's lines of this peptide [1]: 94.6
- normalised SPOT signal, Boehringer light units (BLU); mean over the file's lines of this peptide [2]: 15.8
- normalised SPOT signal, Boehringer light units (BLU); mean over the file's lines of this peptide [3]: 11.4
- normalised SPOT signal, Boehringer light units (BLU); mean over the file's lines of this peptide [4]: 90.6
- normalised SPOT signal, Boehringer light units (BLU); mean over the file's lines of this peptide [5]: 76

Binder: KLGPDTPIKVAGPL [YOR219C 616-629]
- normalised SPOT signal, Boehringer light units (BLU); mean over the file's lines of this peptide [1]: 105
- normalised SPOT signal, Boehringer light units (BLU); mean over the file's lines of this peptide [2]: 66
- normalised SPOT signal, Boehringer light units (BLU); mean over the file's lines of this peptide [3]: 196
- normalised SPOT signal, Boehringer light units (BLU); mean over the file's lines of this peptide [4]: 16.9
- normalised SPOT signal, Boehringer light units (BLU); mean over the file's lines of this peptide [5]: 17.6
